Measurements published in PMC4139326, “Functional Roles of the Dimer-Interface Residues in Human Ornithine Decarboxylase” (PLoS ONE, 2014).
Changes are numbered by the printed parent chain. Names may count otherwise. Read-outs that look alike come from different tables or passages of the source.

T1: human antizyme inhibitor (human), O14977
T1 chain: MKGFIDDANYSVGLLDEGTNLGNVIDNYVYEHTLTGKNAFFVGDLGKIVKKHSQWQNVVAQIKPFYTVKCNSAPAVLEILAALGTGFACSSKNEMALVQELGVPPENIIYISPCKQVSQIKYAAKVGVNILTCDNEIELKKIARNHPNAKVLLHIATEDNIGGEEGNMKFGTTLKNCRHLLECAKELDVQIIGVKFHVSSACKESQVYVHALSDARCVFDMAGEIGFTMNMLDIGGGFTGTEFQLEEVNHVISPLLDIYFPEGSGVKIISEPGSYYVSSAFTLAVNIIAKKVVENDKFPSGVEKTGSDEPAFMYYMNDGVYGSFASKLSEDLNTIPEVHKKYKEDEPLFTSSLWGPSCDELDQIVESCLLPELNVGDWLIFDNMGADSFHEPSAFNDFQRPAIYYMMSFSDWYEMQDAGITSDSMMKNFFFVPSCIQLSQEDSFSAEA

B1: human ornithine decarboxylase, wild type (enzyme)
chain: EEFDCHFLDEGFTAKDILDQKINEVSSSDDKDAFYVADLGDILKKHLRWLKALPRVTPFYAVKCNDSKAIVKTLAATGTGFDCASKTEIQLVQSLGVPPERIIYANPCKQVSQIKYAANNGVQMMTFDSEVELMKVARAHPKAKLVLRIATDDSKAVCRLSVKFGATLRTSRLLLERAKELNIDVVGVSFHVGSGCTDPETFVQAISDARCVFDMGAEVGFSMYLLDIGGGFPGSEDVKLKFEEITGVINPALDKYFPSDSGVRIIAEPGRYYVASAFTLAVNIIAKKIVLKEQTGSDDEDESSEQTFMYYVNDGVYGSFNCILYDHAHVKPLLQKRPKPDEKYYSSSIWGPTCDGLDRIVERCDLPEMHVGDWMLFENMGAYTVAAASTFNGFQRPTIYYVMSGPAWQLMQQFQNPDFPP
notes: ornithine decarboxylase (ODC), human; cDNA cloned into pQE30; Written as the protomer; it associates with itself to the dimer; also called ODC
B2: human ornithine decarboxylase K294A (enzyme)
chain: B1 chain with K288A
notes: ornithine decarboxylase (ODC), human; cDNA cloned into pQE30
B3: human ornithine decarboxylase Y331S/Y389D/R277S/D332E/V322D/D134A (enzyme)
chain: B1 chain with D128A, R271S, V316D, Y325S, D326E, Y383D
notes: ornithine decarboxylase (ODC), human; cDNA cloned into pQE30; also called [ODC_4M]+[V322D/D134A]; sextuple mutant
B4: human ornithine decarboxylase Y331S/Y389D/R277S/D332E/R165E (enzyme)
chain: B1 chain with R159E, R271S, Y325S, D326E, Y383D
notes: ornithine decarboxylase (ODC), human; cDNA cloned into pQE30; also called [ODC_4M]+R165E
B5: human ornithine decarboxylase Y331S (enzyme)
chain: B1 chain with Y325S
notes: as for B2
B6: human ornithine decarboxylase Y331S/Y389D/R277S (enzyme)
chain: B1 chain with R271S, Y325S, Y383D
notes: as for B2
B7: human ornithine decarboxylase Y331S/Y389D/R277S/D332E/V322D (enzyme)
chain: B1 chain with R271S, V316D, Y325S, D326E, Y383D
notes: ornithine decarboxylase (ODC), human; cDNA cloned into pQE30; also called [ODC_4M]+V322D
B8: human ornithine decarboxylase D332E (enzyme)
chain: B1 chain with D326E
notes: as for B2
B9: human ornithine decarboxylase R277S (enzyme)
chain: B1 chain with R271S
notes: as for B2
B10: human ornithine decarboxylase Y331S/Y389D/R277S/D332E/D134A (enzyme)
chain: B1 chain with D128A, R271S, Y325S, D326E, Y383D
notes: ornithine decarboxylase (ODC), human; cDNA cloned into pQE30; also called [ODC_4M]+D134A
B11: human ornithine decarboxylase Y331S/Y389D (enzyme)
chain: B1 chain with Y325S, Y383D
notes: as for B2
B12: human ornithine decarboxylase Y331S/Y389D/R277S/D332E/K294A (enzyme)
chain: B1 chain with R271S, K288A, Y325S, D326E, Y383D
notes: ornithine decarboxylase (ODC), human; cDNA cloned into pQE30; also called [ODC_4M]+K294A
B13: human ornithine decarboxylase R165E (enzyme)
chain: B1 chain with R159E
notes: as for B2
B14: human ornithine decarboxylase Y331S/Y389D/R277S/D332E/K169A (enzyme)
chain: B1 chain with K163A, R271S, Y325S, D326E, Y383D
notes: ornithine decarboxylase (ODC), human; cDNA cloned into pQE30; also called [ODC_4M]+K169A
B15: human ornithine decarboxylase V322D (enzyme)
chain: B1 chain with V316D
notes: as for B2
B16: human ornithine decarboxylase Y389D (enzyme)
chain: B1 chain with Y383D
notes: as for B2
B17: human ornithine decarboxylase K169A (enzyme)
chain: B1 chain with K163A
notes: as for B2
B18: human ornithine decarboxylase D134A (enzyme)
chain: B1 chain with D128A
notes: as for B2
B19: human ornithine decarboxylase Y331S/Y389D/R277S/D332E (enzyme)
chain: B1 chain with R271S, Y325S, D326E, Y383D
notes: ornithine decarboxylase (ODC), human; cDNA cloned into pQE30; also called ODC_4M
B20: human antizyme inhibitor, O14977 1-448 (natural protein)
chain: T1 chain

Key:
[1] = target: ornithine decarboxylase (Homo sapiens) (UniProt P11926); conditions: cited from earlier work
Chain of ornithine decarboxylase (Homo sapiens) (P11926 whole entry): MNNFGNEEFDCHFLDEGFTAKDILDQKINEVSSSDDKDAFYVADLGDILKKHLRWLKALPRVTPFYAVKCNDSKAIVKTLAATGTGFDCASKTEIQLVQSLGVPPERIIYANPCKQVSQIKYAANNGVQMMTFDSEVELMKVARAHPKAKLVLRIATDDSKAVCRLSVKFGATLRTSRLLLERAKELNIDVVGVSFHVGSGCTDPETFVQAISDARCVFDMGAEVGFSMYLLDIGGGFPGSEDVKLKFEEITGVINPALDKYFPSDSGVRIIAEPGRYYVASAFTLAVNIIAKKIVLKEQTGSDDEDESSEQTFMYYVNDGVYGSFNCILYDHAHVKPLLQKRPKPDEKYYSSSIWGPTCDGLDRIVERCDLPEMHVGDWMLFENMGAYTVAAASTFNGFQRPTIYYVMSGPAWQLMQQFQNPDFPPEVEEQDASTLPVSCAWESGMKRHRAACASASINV

[2] = target: antizyme inhibitor (Homo sapiens) (UniProt O14977); conditions: cited from earlier work
[3] = target: ornithine decarboxylase (Homo sapiens) (UniProt P11926); conditions: cited from earlier work; remark: listed apart in the source
[4] = target: antizyme inhibitor (Homo sapiens) (UniProt O14977); conditions: cited from earlier work; remark: listed apart in the source
[5] = target: the molecule itself; test: AUC; sedimentation velocity, 0.3, 0.6 and 0.9 mg/ml protein in 50 mM Tris-HCl pH 7.5, 293 K, 42,000 rpm; global fit to a monomer-dimer equilibrium model (SEDPHAT); dimer to monomers
[6] = target: T1, human antizyme inhibitor (human), O14977; test: as above; conditions: remark: other sources report otherwise

| Molecule | Kd [5] | other results |
| --- | --- | --- |
| ornithine decarboxylase (from UniProt P11926) |  | Kd [1]: 180 nM |
| antizyme (from UniProt P54368) |  | Kd [2]: 20 nM; Kd [3]: 200 nM |
| antizyme inhibitor (from UniProt O14977) |  | Kd [4]: 84000 nM |
| B1 | 100 ± 1 nM |  |
| B2 | 100 ± 8 nM |  |
| B3 | 52800 ± 500 nM |  |
| B4 | 13500 ± 450 nM |  |
| B5 | 1100 ± 8 nM |  |
| B6 | 1030 ± 4 nM |  |
| B7 | 25200 ± 30 nM |  |
| B8 | 30 ± 7 nM |  |
| B9 | 80 ± 6 nM |  |
| B10 | 13300 ± 40 nM |  |
| B11 | 160 ± 1 nM |  |
| B12 | 260 ± 60 nM |  |
| B13 | 110 ± 1 nM |  |
| B14 | 1490 ± 40 nM |  |
| B15 | 560 ± 12 nM |  |
| B16 | 690 ± 5 nM |  |
| B17 | 300 ± 8 nM |  |
| B18 | 120 ± 12 nM |  |
| B19 | 15900 ± 80 nM |  |
| B20 |  | Kd [6]: 72300 nM |
